Assay: yeast display, Sf9 membrane polyspecificity reagent, FACS + sequencing; frameworks hold sequencing errors
In short: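 Nanobodies from a synthetic yeast display library (Saccharomyces cerevisiae BJ5465), induced 36–48 hours with galactose, were stained 1 hour at 4 °C with 10% biotinylated, detergent-solubilized Sf9 membrane reagent, enriched on streptavidin microbeads, then FACS-sorted. Anti-HA (expression) and streptavidin (reagent binding) fluorescence set low and high (top ~1%) gates. Polyreactivity labels come from the gate of origin. Genes were colony-PCR amplified, MiSeq 2 × 250 sequenced and filtered by CDR length.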

| Sequence | polyreactivity (PSR sort gate) |
| --- | --- |
| QVQLVESGGGLVQAGGSLRLSCAASGSIFRRNAMGWYRQAPGKERELVAAISSSGNTYYADSVKGRFTISRDNAKNTVYLQMNSLKPEDTAVYYCAADGRNYYGSYDYWGQGTQVTVSS | low polyreactivity |
| QVQLVESGGGLVQAGGSLRLSCAASGSIFRRNAMGWYRQVPGKERELVAAITWRGDRTYYADSVKGRFTISRDNAKNTVYLQMNSLKPEDTAVYYCNKLGRIQYDYWGQGTQVTVSS | high polyreactivity |
| QVQLVESGGGLVQAGGSLRLSCAASGSIFRRNTMGWYRQAPGKERELVAAITFTGGRTYYADSVKGRFTISRDNAKNTVYLQMNSLKPEDTAVYYCNRVTAYYPTKFDYWGQGTQVTVSS | high polyreactivity |
| QVQLVESGGGLVQAGGSLRLSCAASGSIFRRYAMGWYRQAPGKERELVAAIDSSGGTSYADSVKGRFTISRDNAKNTVYLQMNILKPEDTAVYYCATSFSWKGRKYGYWGQGTQVTVSS | high polyreactivity |
| QVQLVESGGGLVQAGGSLRLSCAASGSIFRSYAMGWYRHAPGKERELVASISRRGGSTYYADSVKGRFTSSRDNSKNTVYLHMNSRKPEDTAVYYCAAVRYNSRVSTTTSEMYYWGQGTQVTVSS | low polyreactivity |
| QVQLVESGGGLVQAGGSLRLSCAASGSIFRSYAMGWYRQAPGKERELVAAISRRGSSTYYADSVKGRFTISRDNAKNTVYLQMNSLKPEDTAVYYCAADRVVPRGRYGGDYWGQGTQVTVSS | high polyreactivity |
| QVQLVESGGGLVQAGGSLRLSCAASGSIFRSYAMGWYRQAPGKERELVAAITNGGSTYYADSVKGRFTISRDNAKNTVYLQINSLKPEDTAVYYCAAARYTYWFYLVKKTGYYWGQGTQVTVSS | high polyreactivity |
| QVQLVESGGGLVQAGGSLRLSCAASGSIFRSYAMGWYRQAPGKERELVAGISYSGGSTYYADSVKGRFTISRDKAKNTVYLQMNSLKPEDTAVYYCNVDGGTYFFFVGAWGEYDYWGQGTQVTVSS | low polyreactivity |
| QVQLVESGGGLVQAGGSLRLSCAASGSIFRSYGMGWYRQAPGKDRELVPSISRRGGSTYYADSVKGRFTISRDNAKNTVYLQTNSLKPEDTAVYYCAAVRYNSRVSTTPSEMYYWGQGTQVTVSS | low polyreactivity |
| QVQLVESGGGLVQAGGSLRLSCAASGSIFRTNAIGWYRQAPGRERELVAAITGSGGSTYYADSVKGRFTISRDNAKNTVYLQMNSLKPEDTAVYYCAVVGYHRDFDYWGQGTQVTVSS | low polyreactivity |
| QVQLVESGGGLVQAGGSLRLSCAASGSIFRTNAMGWYRQAPGKERELVAAISSGDRTYYADSVKGRFTISRDNAKNTVYLQMNSLKPEDTAVYYCAARGYSATVYAGTYDYWGQGTQVTVSS | low polyreactivity |
| QVQLVESGGGLVQAGGSLRLSCAASGSIFRTNAMGWYRQAPGKERELVAAITGRGGSTYYADSVKGRFTISRNNAKNTVYLQMNSLKPEDTAVYYCAADTWYGYRYKYDYWGQGTQVTVSS | high polyreactivity |
| QVQLVESGGGLVQAGGSLRLSCAASGSIFRTYAMGWYRQAPGKERELVAAIRRSGGRTYYADSVKGRFTISRDNAKNTVYLQMNSLKPEDTAVYYCNKRVSKQSKYDYWGQGTQVTVSS | high polyreactivity |
| QVQLVESGGGLVQAGGSLRLSCAASGSIFRTYTMGWYRQAPGKEREFVAAISRSGGSTYYADSVKGRFTISRDNAKNTVYLQMNSLKPEDTAVYYCNARWGLGSYGYWGQGTQVTVSS | high polyreactivity |
| QVQLVESGGGLVQAGGSLRLSCAASGSIFRVNDMGWYRQAPGKERELVAAISSNGDDTFYADSVKGRFTISRDNAKNTVYLQMNSLKPEDTAVYYCNAESPTYPDYYFKYTHYDYWGQGTQVTVSS | low polyreactivity |
| QVQLVESGGGLVQAGGSLRLSCAASGSIFRVNDMGWYRQAPGKERELVAAISSNGDDTFYADSVKGRFTISRDNSKNTVYLQMNSLKPEDTAVYYCNAESPTYPDYFFKYTHYDYWGQGTQVTVSS | low polyreactivity |
| QVQLVESGGGLVQAGGSLRLSCAASGSIFRVYAMGWYRHAPGKERELVATITWNGGSTYYADSVKGRFTISRDNAKNTVYLQMNSLKPEDTAVYYCAAGRDTWPSTYYYWGQGSQVTVSS | low polyreactivity |
| QVQLVESGGGLVQAGGSLRLSCAASGSIFRVYAMGWYRPAPGKERELVASISRRGGSTYYADSVKGRFTISRDNEKNTVYLHMNILKPEDTAVYYCAAEFVIGVHCYDYWGQVTQVTVSS | high polyreactivity |
| QVQLVESGGGLVQAGGSLRLSCAASGSIFRVYAMGWYRQAPGKERELVAAITRGGSTYADSVKGRFTISRDNAKNTVYLQMNSLKPEDTAVYYCAARVSYWGQGTQVTVSS | high polyreactivity |
| QVQLVESGGGLVQAGGSLRLSCAASGSIFRVYAMGWYRQAPGKERELVAGITGRGGSTYYADSVKGRFTISRDNAKNTVYLQMNSLKPEDTAVYYCNRRYRYGRDYWGQGTQVTVSS | high polyreactivity |
| QVQLVESGGGLVQAGGSLRLSCAASGSIFRVYAMGWYRQAPGKERELVAGITWTGTRTYYADSVKGRFTISRDNAKNTVYLQMNSLKPEDTAVYYCAARYTIRYKRYDYWGQGTQVTVSS | high polyreactivity |

| Sequence | polyreactivity (PSR sort gate) |
| --- | --- |
| QVQLVESGGGLVQAGGSLRLSCAASGSIFRVYAMGWYRQAPGKERELVARISRGGRTNYADSVKGRFTISRDNAKNTVYLQMNSLKPEDTSVYYCAADVVSLESYSYQSLGYDSWGQGTQVNVSS | high polyreactivity |
| QVQLVESGGGLVQAGGSLRLSCAASGSIFRVYAMGWYRQAPGKERELVARISWSDDGTYYADSVKGRFTISRDNAKNTVYLQMNSLKPEDTAVYYCNADSYYYPYDYWGQGTQVTVSS | low polyreactivity |
| QVQLVESGGGLVQAGGSLRLSCAASGSIFRVYAMGWYRQAPGKERELVASISRRGGSTYYADSVKGRFTISRDYAKNTVYLQMNSLKPEDTAVYYCAAEFVIGGHGYDYWGQGTQVSVSS | high polyreactivity |
| QVQLVESGGGLVQAGGSLRLSCAASGSIFRVYAMGWYRQSPGKERELVASIRSRGGSTYYADSVKGRFTISRDNAKNTVYLQMNSLKPEDTAVYYCGKSYWGGDEYWGQGTQVTVSS | low polyreactivity |
| QVQLVESGGGLVQAGGSLRLSCAASGSIFRVYGMGWYRQAPGKERELVAAITWSGGSTYYADSVKGRFTISRDNAKNTVYLQMNSLKPEDTAVYYCAARHKYAFWTAFGNYWGQGTQVTVSS | high polyreactivity |
| QVQLVESGGGLVQAGGSLRLSCAASGSIFRVYGMGWYRQAPGKERELVAAITWSGGSTYYADSVKGRFTISRDNAKNTVYLQMNSLKPEDTAVYYCNADKFRRYGYWGQGTQVTVSS | high polyreactivity |
| QVQLVESGGGLVQAGGSLRLSCAASGSIFRWNAMGWYRQAPRKEREMVAAIDYSGGSTYYADSVKGRFTISRDNAKKTVYLQMNSLKPEDTAVYFCADTAYYGGYLRYDYWGQGTQVTVSS | low polyreactivity |
| QVQLVESGGGLVQAGGSLRLSCAASGSIFRWYAMGWYRQAPGKERELVAAISTSGGNTYYADSVKGRFTISRDIAKITVYLQMKSLKPEDTAVYYCNALWYRSLSYRYDYWGQGTQVTVSS | high polyreactivity |
| QVQLVESGGGLVQAGGSLRLSCAASGSIFRWYAMGWYRQAPGKERELVAGITRGGRTNYADSVKGRFTISRDNAKNTVYLQMNSLKPEDTAVYYCAKVSRSKQKFDYWGQGTQVTVSS | high polyreactivity |
| QVQLVESGGGLVQAGGSLRLSCAASGSIFRYNAKGWYRQAPGKERELVAARRSRGGSTNYADSVKGRFTISRDNAKNTVYLQMNSLKPEDNAVYFCAADGSYTKTTIYIFGGLDFWGQGTQVTVSS | low polyreactivity |
| QVQLVESGGGLVQAGGSLRLSCAASGSIFRYNAMGWDRQAPGKERELVAGITWGGSTYYADSVKGRFTISRDNAKNTVYLQMNSLKPEDTAVYYCAAGRYGDYGYWGQGTQVTVSS | high polyreactivity |
| QVQLVESGGGLVQAGGSLRLSCAASGSIFRYNAMGWYRQAPGKERELVAAIRSGGSTYYADSVKGRFTISRDNAKNTVYLQMNSLKPEDTAVYYCNARRYVGYDYWGQGTQVTVSS | high polyreactivity |
| QVQLVESGGGLVQAGGSLRLSCAASGSIFRYYAMGWYRQAPGKEREFVAAISASGGSTYYADSVKGRFTISRDNAKNTVYLQMNSLKPEDTAVYYCAARYSYRRPGGYPFGSWGQGTQVTVSS | high polyreactivity |
| QVQLVESGGGLVQAGGSLRLSCAASGSIFRYYAMGWYRQAPGKEREFVAAITRSGGSTTYADSVKGRFTISRDNAKNTVYLQMNSLKPEDTAVYYCNAKSSRFQVFNYGYWGQGTQVTVSS | high polyreactivity |
| QVQLVESGGGLVQAGGSLRLSCAASGSIFRYYAMGWYRQAPGKEREFVARISVSGGSTYYADSVKGRFTISRDNAKNAVYLQMNSLKPEDTAVYYCNTADFRSRYPAMGYWGQGTQVNVSS | low polyreactivity |
| QVQLVESGGGLVQAGGSLRLSCAASGSIFRYYAMGWYRQAPGKERELVAAIRRSGASTYYADSVKGRFTISRDNAKNTVYLHMNSLKPEDTAVYYCAASSFNNGHRYDYWGQGTQVTVSS | high polyreactivity |
| QVQLVESGGGLVQAGGSLRLSCAASGSIFRYYAMGWYRQAPGKERELVAAISGSGASTYYADSVKGRFTISRDNAKNTVYLQMNSLKPEDTEVYFCAAYRGPRHHYPSVYNWGYDYWGQGTQVTVSS | high polyreactivity |
| QVQLVESGGGLVQAGGSLRLSCAASGSIFRYYAMGWYRQAPGKERELVAAISNRGSSTNYADSVKGRFTISRDNAKNTVYLQMNSLKPEDTAVYYCAARVRYPGLSGNMYYWGQGTQVTVSS | high polyreactivity |
| QVQLVESGGGLVQAGGSLRLSCAASGSIFRYYAMGWYRQAPGKERELVAAITSGGRTNYADSVKGRFTISRDNAKNTVYLQMNSLKPEDSAVYYCNKGYNAVWRYRGDYWGQGTQVTVSS | high polyreactivity |
| QVQLVESGGGLVQAGGSLRLSCAASGSIFRYYAMGWYRQAPGKERELVATISSSGGTTYYADSVKGRFTISRDNAKNTVYLQMNSLKPEDTAVYYCAALWTWHVSYPVHEYDYWGQGTQVTVSS | low polyreactivity |
